Data: patent publication US20090208977A1

Key:
[1] = target: human BRS3 (ENSG00000102239) (human) (UniProt P32247); assay: flow cytometry, live human sperm; antibody not named (SC33404 is the only BRS3 antibody that bound)
[2] = target: human FMR1NB (ENSG00000176988) (human) (UniProt Q8N0W7); assay: flow cytometry, live human sperm; antibody not named (only one FMR1NB antibody was tried)
Sequence of UniProt Q8N0W7 (Q8N0W7 whole entry): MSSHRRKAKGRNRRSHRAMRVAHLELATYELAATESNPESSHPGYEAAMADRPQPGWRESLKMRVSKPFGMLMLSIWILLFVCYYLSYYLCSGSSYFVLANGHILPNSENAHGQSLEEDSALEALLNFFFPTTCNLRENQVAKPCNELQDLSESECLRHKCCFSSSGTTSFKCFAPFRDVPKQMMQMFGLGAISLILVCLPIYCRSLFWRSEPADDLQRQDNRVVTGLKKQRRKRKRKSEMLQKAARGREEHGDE

Sequence of UniProt P32247 (P32247 whole entry): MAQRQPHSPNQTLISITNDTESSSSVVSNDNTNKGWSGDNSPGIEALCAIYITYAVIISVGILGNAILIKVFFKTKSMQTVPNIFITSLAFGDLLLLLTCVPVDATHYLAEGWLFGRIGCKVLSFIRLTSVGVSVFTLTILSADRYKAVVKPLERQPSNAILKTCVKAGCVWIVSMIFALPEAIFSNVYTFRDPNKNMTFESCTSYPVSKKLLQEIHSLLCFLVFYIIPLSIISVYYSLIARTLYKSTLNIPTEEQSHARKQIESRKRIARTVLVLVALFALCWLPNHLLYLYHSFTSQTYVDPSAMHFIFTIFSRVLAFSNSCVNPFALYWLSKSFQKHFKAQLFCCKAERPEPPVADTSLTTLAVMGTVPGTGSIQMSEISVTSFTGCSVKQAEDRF

| Substance | Sperm cells showing specific binding (%) [1] | Sperm cells showing specific binding (%) [2] |
| --- | --- | --- |
| BRS-3 (N-14), Santa Cruz Biotechnology SC-33404 (antibody) | 10.7% |  |
| FMR1NB antibody, Proteintech Group 11069-2-AP |  | 29.7% |
